PMC12866175 (European journal of nuclear medicine and molecular imaging, 2021)

Assays:
[1] = set-up: species or system BALB/c mice; details: mouse, in vivo
[2] = system: non-tumor-bearing BALB/c mice; test: Toxicity, single intravenous injection, 5 months; type: in vivo

Compound: C[C@@H](O)[C@H](NC(=O)[C@@H]1CSSC[C@H](NC(=O)[C@@H](Cc2ccccc2)NC(=O)CN2CCN(CC(=O)O)CCN(CC(=O)O)CCN(CC(=O)O)CC2)C(=O)N[C@@H](Cc2ccc(O)cc2)C(=O)N[C@H](Cc2c[nH]c3ccccc23)C(=O)N[C@@H](CCCCN)C(=O)N[C@@H]([C@@H](C)O)C(=O)N1)C(=O)O [[^225Ac]Ac-DOTA-TATE, metal not drawn]
- clearance of activity from the tissues [1]: largely cleared
- ALKP among the cohorts ([2]; mouse, in vivo): No significant differences
- ALT among the cohorts ([2]; mouse, in vivo): No significant differences
- AST among the cohorts ([2]; mouse, in vivo): No significant differences
- Blood BUN ([2]; mouse, in vivo): in the normal range
- Blood creatinine ([2]; mouse, in vivo): in the normal range
- acute kidney damage by pathology ([2]; mouse, in vivo): no acute kidney damage
- damage in the liver or other tissues by pathology ([2]; mouse, in vivo): no treatment related damage
- survival ([2]; to 5 months p.i.): all animals survived
